Data taken from patent US20160011195A1.

Legend:
[1] = target: PLK1 PBD protein (residues 367-603) (human) (UniProt P53350); assay: competitive FP, displacement of fluorescein tracer SEQ ID NO: 7 from PLK1 PBD (367-603)
[2] = target: PLK1 PBD protein (residues 367-603) (human) (UniProt P53350); assay: competitive FP
[3] = target: PLK1 326-603 (longer PBD construct) (human) (UniProt P53350); assay: competitive FP, displacement of fluorescent tracer peptide from PLK1 326-603
Sequence of PLK1 326-603 (longer PBD construct) (human) (P53350 326-603 limits assumed): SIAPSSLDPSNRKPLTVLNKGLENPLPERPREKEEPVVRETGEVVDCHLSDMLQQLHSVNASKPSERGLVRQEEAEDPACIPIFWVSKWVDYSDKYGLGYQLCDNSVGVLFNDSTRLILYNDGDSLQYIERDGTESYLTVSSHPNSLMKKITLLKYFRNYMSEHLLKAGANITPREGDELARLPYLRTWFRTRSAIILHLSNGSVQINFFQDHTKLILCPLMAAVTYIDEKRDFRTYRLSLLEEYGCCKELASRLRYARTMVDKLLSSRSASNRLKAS

Sequence of PLK1 PBD protein (residues 367-603) (human) (P53350 367-603 limits assumed): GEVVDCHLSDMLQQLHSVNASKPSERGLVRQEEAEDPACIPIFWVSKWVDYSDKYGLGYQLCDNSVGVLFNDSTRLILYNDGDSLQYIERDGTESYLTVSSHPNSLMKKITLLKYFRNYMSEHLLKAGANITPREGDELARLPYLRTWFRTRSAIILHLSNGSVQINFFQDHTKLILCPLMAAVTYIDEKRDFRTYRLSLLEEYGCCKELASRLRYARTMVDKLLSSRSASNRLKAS

Row | IC50 [1] | Substance | further results
1 | 0.5 µM | Ac-LLCS[pT]PNGL (sample no. 5821) (peptide) | –
2 | 15 µM | Ac-AHS[pT]AI (sample no. 5782) (peptide) | fold higher IC50 (against Ac-LHS[pT]AI, sample no. 5781) [2]: 3 fold
3 | 8.6 µM | 3G2-S[pT]PNGL (4-butylbenzoic acid) (Sample No. 5827) (peptide) | –
4 | > 600 µM | S[pT]PNGL (sample no. 5714) (peptide) | –
5 | 2 µM | Ac-PLHS[pT]A (sample no. 5743) (peptide) | –
6 | 5 µM | Ac-LHS[pT]AI (sample no. 5781) (peptide) | fold less potent than the parent peptide containing the N-terminal LLC [2]: 6 fold; fold more potent than the non-acetylated version (sample no. 5649) [2]: 40 fold
7 | 0.42 µM | LLCS[pT]PNGL, native phospho-CDC25c PBD binding sequence (sample no. 292) (peptide) | IC50 [3]: 1.3 µM
8 | 200 µM | LHS[pT]AI (sample no. 5649) (peptide) | –
9 | 16.5 µM | 3G1-S[pT]PNGL (4-ethylbenzoic acid) (Sample No. 5788) (peptide) | –
10 | 3 µM | LDCS[pT]PNGL (sample no. 5795) (peptide) | –
